Assay results as given in IntAct's records for PubMed 19154346.

B1: Calreticulin (Homo sapiens), P27797 (parent)
chain: MLLSVPLLLGLLGLAVAEPAVYFKEQFLDGDGWTSRWIESKHKSDFGKFVLSSGKFYGDEEKDKGLQTSQDARFYALSASFEPFSNKGQTLVVQFTVKHEQNIDCGGGYVKLFPNSLDQTDMHGDSEYNIMFGPDICGPGTKKVHVIFNYKGKNVLINKDIRCKDDEFTHLYTLIVRPDNTYEVKIDNSQVESGSLEDDWDFLPPKKIKDPDASKPEDWDERAKIDDPTDSKPEDWDKPEHIPDPDAKKPEDWDEEMDGEWEPPVIQNPEYKGEWKPRQIDNPDYKGTWIHPEIDNPEYSPDPSIYAYDNFGVLGLDLWQVKSGTIFDNFLITNDEAYAEEFGNETWGVTKAAEKQMKDKQDEEQRLKEEEEDKKRKEEEEAEDKEDDEDKDEDEEDEEDKEEDEEEDVPGQAKDEL

Variants of: B1
Settings: with gbrap_human GABARAP

Variant	effect of a mutation on the interaction
W200A	disrupting interaction
